Experimental data as given in US6034061.

Legend:
[1] = biological target: BMP-9 receptors expressed on HepG2 cells (ATCC HB8065)
[2] = biological target: BMP-9 receptors expressed on HepG2 cells (ATCC HB8065); assay: 125I-BMP-9 binding to HepG2 cells; the Kd told again in ng/ml
[3] = biological target: BMP-9 receptors expressed on HepG2 cells (ATCC HB8065); assay: Scatchard analysis of 125I-BMP-9 binding to HepG2 cells
[4] = biological target: BMP-9 receptors expressed on HepG2 cells (ATCC HB8065); assay: Scatchard analysis; 2 ng/ml 125I-BMP-9 displaced by unlabelled BMP-9 on HepG2 cells, 20 hours at 4 C
[5] = biological target: BMP-9 receptors expressed on HepG2 cells (ATCC HB8065); assay: 125I-BMP-9 binding to HepG2 cells

- 3H-thymidine incorporation in HepG2 cells [1]: 5 fold
- ED50 of 3H-thymidine incorporation in HepG2 cells [1]: 10 ng/mL
- Kd [2]: 8 ng/mL
- high affinity receptors per cell (receptors per cell) [3]: 10000
- Kd [4]: 0.3 nM
- Kd [5]: 0.27 nM
B1: recombinant human BMP-9, CHO-derived (mature region of human BMP-9 expressed from the murine/human BMP-9 fusion plasmid) (ligand)
chain: TRECSRSCPRTAPQRQVRAVTRRTRMAHVAAGSTLARRKRSAGAGSHCQKTSLRVNFEDIGWDSWIIAPKEYEAYECKGGCFFPLADDVTPTKHAIVQTLVHLKFPTKVG
modifications: iodinated (125I) where used as the tracer; unlabelled where used as the competitor or in the proliferation assay
